Results as given in patent US20170306038A1, “COMPOSITIONS AND METHODS OF USE FOR AUGMENTED IMMUNE RESPONSE AND CANCER THERAPY” (priority 2014, published 2017).

Key:
human GITR [1] = target: T1, human GITR (Homo sapiens, UniProt Q9Y5U5); test: NFκB-Luciferase reporter gene assay, 293 cells with human GITR; format: cell-based; settings: antibodies crosslinked
T1 construct: expressed in transfected cells; host or cells: HEK-293 (293) cells
T1 sequence (Q9Y5U5 26-241): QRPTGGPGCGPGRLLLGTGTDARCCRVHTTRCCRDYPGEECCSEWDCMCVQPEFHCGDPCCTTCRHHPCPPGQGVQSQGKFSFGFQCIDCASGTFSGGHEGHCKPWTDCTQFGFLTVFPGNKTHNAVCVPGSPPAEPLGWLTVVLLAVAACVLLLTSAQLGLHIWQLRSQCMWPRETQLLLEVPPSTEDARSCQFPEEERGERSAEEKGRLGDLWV
Method: To generate the 293-hGITR-NFκB reporter gene cells line, 293 cells were stably transfected with an NFκB-Luciferase reporter gene and human GITR (or cyno GITR). Activation of the GITR signaling pathway in these cells was determined by measuring the levels of luciferase induced within the cells after a 24 hour incubation with GITR-L or agonistic antibody. To assess the effects of cross-linking Abs, they were incubated with an excess of a F(ab′)2 goat anti-human Fcγ fragment specific antibody or protein A before using in the reporter gene assay.
Functional activity of MABs were tested in an NFkB reporter gene assay for agonist activity. MAB was diluted to 6 μg/mL in PBS and incubated for 30 minutes at room temperature in the presence/absence of a 3 fold excess of F(ab′)2 fragment goat anti-human Fcγ specific crosslinker. Alternatively, MAB was diluted to 6 μg/mL in PBS and incubated for 30 minutes at room temperature in the presence/absence of a 2 fold excess of Protein A. 10 μL of incubated MAB was then added to a 384 well white clear bottomed assay plate. A HEK-293 cell line stably transfected with hGITR and a NFκB reporter gene was diluted to 5×10^5 cells/mL and 20 μL of the cell suspension was added to each well. […] 30 μL of Cell Bright Glo was added to each well and the plate was read for luminescence on the Acquest.

human GITR [2] = target: T2, human GITR (Homo sapiens, UniProt Q9Y5U5); test: ELISA binding to GITR extracellular domain, human
T2 construct: coated with rat, mouse, human or cyno GITR extracellular domain (ECD) at 50 ng per well
T2 sequence (Q9Y5U5 26-162 limits assumed): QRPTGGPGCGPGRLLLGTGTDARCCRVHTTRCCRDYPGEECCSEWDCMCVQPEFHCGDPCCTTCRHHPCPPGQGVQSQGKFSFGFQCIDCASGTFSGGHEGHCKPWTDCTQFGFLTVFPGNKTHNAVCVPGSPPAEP
Method: (§1) Binding of the MABs to GITR from various species, various alanine mutant constructs or GITR extracellular domain—was assessed using a 384-well plate was coated with rat, mouse, human or cyno GITR extracellular domain (ECD) at 50 ng per well and incubated overnight at 4° C. The plate was blocked with a solution of 1% BSA in PBS for one hour at room temperature and then rinsed three times with PBST. The MAB was then diluted to 0.5 μg/mL or 1 μg/mL in PBS and 20 μL was added to each well. The plate was incubated for 1 hour at room temperature and then washed three times with PBST. Anti-human kappa antibody (Sigma #A7164), anti-human gamma antibody (Jackson Immunoresearch 109-036-098), goat anti-mouse antibody (Jackson ImmunoResearch 115-035-071) conjugated to HRP was diluted 1:5000 in Blocking Buffer (25 μL) and added to each well, or a hrp conjugated HIS antibody (QIAGEN 1014992) diluted 1:1000 in Blocking Buffer was added. The plate was incubated for 1 hour at room temperature, and then washed six times with PBST. 25 μL of SureBlue TMB (KPL 52-00-02) substrate was added to each well and the plate was incubated for about 10 min at room temperature. Plates were read at 650 nm in a spectrophotometer.

cynomolgus GITR = test: ELISA binding to GITR extracellular domain, cyno
Method: as §1

rodent GITR = test: ELISA binding to GITR extracellular domain, rodent; parameters: species or system rat, mouse
Method: as §1

B1: GITRL: recombinant human GITR ligand (GITR-L) (protein)
chain: ETAKEPCMAKFGPLPSKWQMASSEPPCVNKVSDWKLEILQNGLYLIYGQVAPNANYNDVAPFEVRLYKNKDMIQTLTNKSKIQNVGGTYELHVGDTIDLIFNSEHQVLKNNTYWGIILLANPQFIS
NFκB activity / intracellular signaling (human GITR [1]): activates intracellular signaling

B2: MAB1: murine monoclonal GITR agonist antibody (parental); VH SEQ ID NO:61, VL SEQ ID NO:59 (antibody, V domains shown)
VH: QVQLKESGPGLVAPSQSLSITCTVSGFSLRSYGVDWVRQPPGKGLEWLGVIWGGGGTNYNSALMAKLSISKDKSKSQVFLKMNSLQTDDTAMYYCAKHAYGHDGGFAMDYWGQGTSVTVSS
VL: NIVMTQSPKSMSMSVGERVTLSCKASENVDTFVSWYQQKPDHSPKLLIYGASNRYTGVPDRFTGSGSATDFTLTISSVQAEDLADYHCGQSYSYPFTFGSGTKLEIK
binding to human GITR in ELISA (human GITR [2]): binds | binding to cynomolgus GITR in ELISA (cynomolgus GITR): binds | binding to rodent GITR in ELISA (rodent GITR): not rodent GITR
